Laboratory results reported in the supplement of paper PMC9112550, “Optimization of the antimicrobial peptide Bac7 by deep mutational scanning” (BMC Biology, 2022).

test system: Escherichia coli TOP10; experiment: shrunken log2 fold change of peptide-encoding DNA abundance (4.5 h post-induction vs induction); higher = less antimicrobial activity (less host growth inhibition); settings: time post-induction: 4.5 h; library: site-saturation at positions 5, 18, 19, 20
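Also: peptides expressed intracellularly from a pBAD plasmid library in pooled LB shake-flask culture, induced with 0.3% L-arabinose, DNA abundance read by NGS, three biological replicates, DESeq2 with apeglm shrinkage.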

Row | Sequence | shrunken log2 fold change
1 | RRIRARPPRLPRPRPRPPNPPRP | 0.662
2 | RRIRKRPPRLPRPRPRPQPFPRP | 0.18
3 | RRIRARPPRLPRPRPRPFQDPRP | -0.297
4 | RRIRARPPRLPRPRPRPEWHPRP | 0.381
5 | RRIRFRPPRLPRPRPRPRWRPRP | 0.382
6 | RRIRWRPPRLPRPRPRPEMTPRP | -0.0833
7 | RRIRHRPPRLPRPRPRPIKMPRP | -0.0865
8 | RRIRPRPPRLPRPRPRPIDYPRP | -0.13
9 | RRIRARPPRLPRPRPRPGFVPRP | 0.42
10 | RRIRQRPPRLPRPRPRPFNVPRP | -0.375
11 | RRIRMRPPRLPRPRPRPIQYPRP | 0.0408
12 | RRIRGRPPRLPRPRPRPRDMPRP | 0.339
13 | RRIRYRPPRLPRPRPRPAHPPRP | -0.0595
14 | RRIRYRPPRLPRPRPRPWWPPRP | -0.254
15 | RRIRERPPRLPRPRPRPMMCPRP | -0.0137
16 | RRIRNRPPRLPRPRPRPPPMPRP | 0.678
17 | RRIRPRPPRLPRPRPRPYSTPRP | -0.729
18 | RRIRHRPPRLPRPRPRPHATPRP | 0.0228
19 | RRIRHRPPRLPRPRPRPYWLPRP | -0.85
20 | RRIRVRPPRLPRPRPRPENHPRP | -0.187
21 | RRIRRRPPRLPRPRPRPQVEPRP | 0.0147
22 | RRIRCRPPRLPRPRPRPQRIPRP | 0.0509
23 | RRIRWRPPRLPRPRPRPDADPRP | 3.34
24 | RRIRARPPRLPRPRPRPKWAPRP | 0.688
25 | RRIRPRPPRLPRPRPRPHTSPRP | -0.622

Row | Sequence | shrunken log2 fold change
26 | RRIRFRPPRLPRPRPRPSNQPRP | 0.0631
27 | RRIRYRPPRLPRPRPRPWLYPRP | -0.613
28 | RRIRQRPPRLPRPRPRPDMPPRP | -0.2
29 | RRIRSRPPRLPRPRPRPSPSPRP | 0.0408
30 | RRIRARPPRLPRPRPRPHTCPRP | -0.29
31 | RRIRRRPPRLPRPRPRPAKPPRP | 0.125
32 | RRIRSRPPRLPRPRPRPWSGPRP | -0.0339
33 | RRIRERPPRLPRPRPRPHANPRP | -0.332
34 | RRIRPRPPRLPRPRPRPKIWPRP | 0.407
35 | RRIRFRPPRLPRPRPRPEPDPRP | -0.0658
36 | RRIRKRPPRLPRPRPRPCTQPRP | -0.0701
37 | RRIRFRPPRLPRPRPRPCQYPRP | -0.53
38 | RRIRNRPPRLPRPRPRPYYCPRP | -0.0454
39 | RRIRNRPPRLPRPRPRPTQPPRP | 0.6
40 | RRIRMRPPRLPRPRPRPCMPPRP | -0.106
41 | RRIRTRPPRLPRPRPRPKLIPRP | -0.0765
42 | RRIRNRPPRLPRPRPRPSMHPRP | -0.805
43 | RRIRHRPPRLPRPRPRPYKYPRP | -0.128
44 | RRIRWRPPRLPRPRPRPWKIPRP | -0.0733
45 | RRIRYRPPRLPRPRPRPMSPPRP | -0.0952
46 | RRIRRRPPRLPRPRPRPPCDPRP | 1.03
47 | RRIRGRPPRLPRPRPRPCKEPRP | -0.0407
48 | RRIRPRPPRLPRPRPRPNYAPRP | -0.0849
49 | RRIRHRPPRLPRPRPRPEWAPRP | -0.0848
50 | RRIRGRPPRLPRPRPRPWTEPRP | 0.128

Row | Sequence | shrunken log2 fold change
51 | RRIRTRPPRLPRPRPRPHSAPRP | 0.205
52 | RRIRCRPPRLPRPRPRPSLAPRP | 0.133
53 | RRIRKRPPRLPRPRPRPELAPRP | 2.83
54 | RRIRNRPPRLPRPRPRPFTHPRP | -0.374
55 | RRIRIRPPRLPRPRPRPRPGPRP | 0.618
56 | RRIRNRPPRLPRPRPRPPQYPRP | -0.0544
57 | RRIRDRPPRLPRPRPRPKRQPRP | -0.0603
58 | RRIRWRPPRLPRPRPRPFTMPRP | -0.36
59 | RRIRCRPPRLPRPRPRPKAAPRP | 0.115
60 | RRIRERPPRLPRPRPRPNERPRP | -0.105
61 | RRIRTRPPRLPRPRPRPLHLPRP | 0.053
62 | RRIRRRPPRLPRPRPRPWWTPRP | 0.0815
63 | RRIRARPPRLPRPRPRPGEHPRP | 0.351
64 | RRIRPRPPRLPRPRPRPPTFPRP | -0.142
65 | RRIRPRPPRLPRPRPRPNKYPRP | -0.662
66 | RRIRVRPPRLPRPRPRPTLHPRP | 0.195
67 | RRIRERPPRLPRPRPRPERFPRP | -0.0509
68 | RRIRDRPPRLPRPRPRPFNFPRP | -0.703
69 | RRIRNRPPRLPRPRPRPFNKPRP | -0.72
70 | RRIRVRPPRLPRPRPRPSVRPRP | -0.297
71 | RRIRIRPPRLPRPRPRPKKHPRP | -0.21
72 | RRIRKRPPRLPRPRPRPINDPRP | -0.48
73 | RRIRNRPPRLPRPRPRPKHPPRP | 0.111
74 | RRIRPRPPRLPRPRPRPYGSPRP | -0.0157
75 | RRIRARPPRLPRPRPRPKKHPRP | 0.417

Row | Sequence | shrunken log2 fold change
76 | RRIRERPPRLPRPRPRPPGNPRP | 0.106
77 | RRIRPRPPRLPRPRPRPEECPRP | -0.105
78 | RRIRGRPPRLPRPRPRPFAMPRP | 0.68
79 | RRIRGRPPRLPRPRPRPFFYPRP | 0.539
80 | RRIRMRPPRLPRPRPRPVTLPRP | -0.393
81 | RRIRIRPPRLPRPRPRPYEVPRP | -0.248
82 | RRIRTRPPRLPRPRPRPASCPRP | 0.066
83 | RRIRPRPPRLPRPRPRPFWGPRP | -0.0925
84 | RRIRQRPPRLPRPRPRPFWVPRP | 0.176
85 | RRIRHRPPRLPRPRPRPPFYPRP | -0.288
86 | RRIRERPPRLPRPRPRPELTPRP | 0.534
87 | RRIRDRPPRLPRPRPRPTCYPRP | 0.289
88 | RRIRPRPPRLPRPRPRPWMTPRP | 0.0158
89 | RRIRSRPPRLPRPRPRPPANPRP | 0.283
90 | RRIRGRPPRLPRPRPRPAPIPRP | 0.586
91 | RRIRKRPPRLPRPRPRPGYFPRP | -0.0741
92 | RRIRGRPPRLPRPRPRPHEKPRP | 0.0144
93 | RRIRGRPPRLPRPRPRPRFKPRP | 0.449
94 | RRIRGRPPRLPRPRPRPPARPRP | 1.2
95 | RRIRKRPPRLPRPRPRPCIVPRP | -0.286
96 | RRIRMRPPRLPRPRPRPHEAPRP | 0.0628
97 | RRIRGRPPRLPRPRPRPDASPRP | 1.34
98 | RRIRPRPPRLPRPRPRPYFFPRP | -0.593
99 | RRIRDRPPRLPRPRPRPCTAPRP | 0.00714
100 | RRIRKRPPRLPRPRPRPVNHPRP | -0.0443

Row | Sequence | shrunken log2 fold change
101 | RRIRIRPPRLPRPRPRPNFAPRP | 0.0322
102 | RRIRIRPPRLPRPRPRPAEKPRP | -0.213
103 | RRIRGRPPRLPRPRPRPKTCPRP | 0.206
104 | RRIRQRPPRLPRPRPRPLWEPRP | 0.025
105 | RRIRWRPPRLPRPRPRPQLSPRP | -0.211
106 | RRIRSRPPRLPRPRPRPRALPRP | 0.0323
107 | RRIRWRPPRLPRPRPRPGTKPRP | 0.139
108 | RRIRKRPPRLPRPRPRPCIMPRP | 1.3
109 | RRIRWRPPRLPRPRPRPHYIPRP | -0.468
110 | RRIRARPPRLPRPRPRPEMRPRP | 1.19
111 | RRIRHRPPRLPRPRPRPKPMPRP | 0.223
112 | RRIRVRPPRLPRPRPRPWHRPRP | -0.145
113 | RRIRTRPPRLPRPRPRPRPIPRP | -0.138
114 | RRIRYRPPRLPRPRPRPSDKPRP | -0.194
115 | RRIRQRPPRLPRPRPRPLVQPRP | -0.361
116 | RRIRNRPPRLPRPRPRPVTEPRP | -0.0551
117 | RRIRHRPPRLPRPRPRPCRIPRP | -0.0589
118 | RRIRWRPPRLPRPRPRPEKTPRP | 0.191
119 | RRIRPRPPRLPRPRPRPRVQPRP | 0.398
120 | RRIRNRPPRLPRPRPRPLSPPRP | -0.215
121 | RRIRGRPPRLPRPRPRPWRCPRP | 0.0546
122 | RRIRKRPPRLPRPRPRPPIQPRP | 0.304
123 | RRIRPRPPRLPRPRPRPDHEPRP | 0.0217
124 | RRIRVRPPRLPRPRPRPAIQPRP | -0.0625
125 | RRIRIRPPRLPRPRPRPIIPPRP | -0.072

Row | Sequence | shrunken log2 fold change
126 | RRIRSRPPRLPRPRPRPPAIPRP | 0.413
127 | RRIRDRPPRLPRPRPRPEHFPRP | -0.138
128 | RRIRRRPPRLPRPRPRPQWWPRP | 0.297
129 | RRIRCRPPRLPRPRPRPEKCPRP | 0.209
130 | RRIRMRPPRLPRPRPRPWTPPRP | 0.28
131 | RRIRTRPPRLPRPRPRPFLRPRP | -0.0935
132 | RRIRRRPPRLPRPRPRPLKEPRP | 0.0888
133 | RRIRVRPPRLPRPRPRPPLGPRP | 0.554
134 | RRIRERPPRLPRPRPRPKSLPRP | -0.515
135 | RRIRHRPPRLPRPRPRPRYAPRP | -0.0694
136 | RRIRDRPPRLPRPRPRPCPMPRP | -0.292
137 | RRIRCRPPRLPRPRPRPKNKPRP | -0.244
138 | RRIRVRPPRLPRPRPRPFAIPRP | -0.765
139 | RRIRARPPRLPRPRPRPFAHPRP | 0.128
140 | RRIRYRPPRLPRPRPRPCSPPRP | -0.0146
141 | RRIRNRPPRLPRPRPRPGVPPRP | 0.457
142 | RRIRLRPPRLPRPRPRPVTKPRP | 0.0485
143 | RRIRKRPPRLPRPRPRPWIHPRP | -0.145
144 | RRIRCRPPRLPRPRPRPEWGPRP | 0.163
145 | RRIRWRPPRLPRPRPRPTQPPRP | 0.398
146 | RRIRPRPPRLPRPRPRPRMEPRP | 0.197
147 | RRIRGRPPRLPRPRPRPHINPRP | 0.214
148 | RRIRIRPPRLPRPRPRPVNWPRP | -0.229
149 | RRIRDRPPRLPRPRPRPDRYPRP | -0.395
150 | RRIRPRPPRLPRPRPRPKDTPRP | -0.173
